Measurements reported in patent US20180118786A1 (ECOLE POLYTECHNIQUE FEDERALE DE LAUSANNE EPFL, published 2018).
Starred links: 1 amine or outer side, 2 acyl side, 3 side chain; linkers in the order of their positions; H or OH if unused. Positions of bridges follow the written chain, without caps; N, C: chain ends. Non-standard residues stand in square brackets, D forms with d. No end group written: not given here. TATA = O=C(CC[*:1])N1CN(C(=O)CC[*:2])CN(C(=O)CC[*:3])C1; Phe(4-F) = N[C@@H](Cc1ccc(F)cc1)C(=O)O; β3hR = N=C(N)NCCC[C@H](N)CC(=O)O

Columns and labels:
[1] = biological target: T1, human β-FXIIa (HFXIIAB; Molecular Innovations) (human, UniProt P00748 354-362; P00748 373-615, limits assumed); test: protease inhibition assay (FIG. 6)
T1 construct: domain: catalytic domain; Bought; also called human b-FXIIa; human FXIIa
T1 sequence (P00748 373-615 limits assumed, one chain of several): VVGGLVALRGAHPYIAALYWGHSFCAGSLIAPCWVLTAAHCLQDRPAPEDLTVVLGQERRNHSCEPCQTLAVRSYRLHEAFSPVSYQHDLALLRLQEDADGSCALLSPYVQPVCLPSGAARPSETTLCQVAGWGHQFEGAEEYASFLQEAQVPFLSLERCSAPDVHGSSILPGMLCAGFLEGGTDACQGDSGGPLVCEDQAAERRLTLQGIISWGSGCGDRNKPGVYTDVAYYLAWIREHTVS

[2] = biological target: T1, human β-FXIIa (HFXIIAB; Molecular …); test: protease inhibition assay
[3] = biological target: trypsin (human, UniProt P07477 24-247); test: protease inhibition assay
[4] = biological target: T2, plasma kallikrein (human, UniProt P03952 20-638); test: protease inhibition assay, specificity testing
T2 construct: also called PK
T2 sequence (P03952 20-638 limits assumed): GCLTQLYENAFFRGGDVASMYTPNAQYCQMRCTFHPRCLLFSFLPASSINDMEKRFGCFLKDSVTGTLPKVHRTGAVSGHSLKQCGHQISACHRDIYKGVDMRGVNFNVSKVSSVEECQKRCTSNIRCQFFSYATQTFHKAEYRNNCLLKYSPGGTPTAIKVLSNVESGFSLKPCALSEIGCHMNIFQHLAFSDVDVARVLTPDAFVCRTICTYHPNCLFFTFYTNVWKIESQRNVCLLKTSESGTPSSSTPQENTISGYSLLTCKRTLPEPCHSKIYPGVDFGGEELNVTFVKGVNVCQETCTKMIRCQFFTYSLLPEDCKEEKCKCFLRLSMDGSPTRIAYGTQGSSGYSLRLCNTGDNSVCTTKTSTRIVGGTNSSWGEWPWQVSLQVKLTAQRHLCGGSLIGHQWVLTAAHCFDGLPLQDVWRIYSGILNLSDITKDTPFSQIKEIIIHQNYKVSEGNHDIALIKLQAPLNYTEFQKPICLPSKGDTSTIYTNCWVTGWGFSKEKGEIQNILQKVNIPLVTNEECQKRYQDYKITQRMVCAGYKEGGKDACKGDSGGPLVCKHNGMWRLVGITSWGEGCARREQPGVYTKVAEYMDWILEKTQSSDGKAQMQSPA

[5] = biological target: T3, mouse FXIIa (mouse, UniProt Q80YC5 20-597, limits assumed); test: protease inhibition assay, fluorogenic substrate
T3 construct: also called mouse α-FXIIa (MFXIIA; Molecular Innovations)
T3 sequence (looked up): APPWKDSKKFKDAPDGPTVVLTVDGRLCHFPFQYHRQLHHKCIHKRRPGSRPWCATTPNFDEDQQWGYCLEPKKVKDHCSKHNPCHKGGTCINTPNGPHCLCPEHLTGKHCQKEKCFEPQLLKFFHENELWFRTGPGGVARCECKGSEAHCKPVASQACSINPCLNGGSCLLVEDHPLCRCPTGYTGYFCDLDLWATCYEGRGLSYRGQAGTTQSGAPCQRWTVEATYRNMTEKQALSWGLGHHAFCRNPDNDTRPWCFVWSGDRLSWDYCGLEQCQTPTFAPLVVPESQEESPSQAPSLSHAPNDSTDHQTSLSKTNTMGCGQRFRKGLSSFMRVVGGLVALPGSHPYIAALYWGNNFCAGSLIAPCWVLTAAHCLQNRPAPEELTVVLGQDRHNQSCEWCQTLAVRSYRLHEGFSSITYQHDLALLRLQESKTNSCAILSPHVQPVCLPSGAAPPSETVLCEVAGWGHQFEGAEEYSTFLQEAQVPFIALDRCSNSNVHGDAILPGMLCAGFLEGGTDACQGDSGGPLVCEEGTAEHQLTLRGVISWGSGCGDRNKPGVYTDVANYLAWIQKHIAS

[6] = biological target: T1, human β-FXIIa (HFXIIAB; Molecular …); test: protease inhibition assay; remark: listed apart in the source
[7] = biological target: T3, mouse FXIIa; test: protease inhibition assay
[8] = biological target: T1, human β-FXIIa (HFXIIAB; Molecular …); test: protease inhibition assay; remark: listed apart in the source
[9] = biological target: T1, human β-FXIIa (HFXIIAB; Molecular …); test: protease inhibition assay; remark: listed apart in the source
[10] = biological target: plasmin (human, UniProt P00747 97-810, limits assumed); test: protease inhibition assay
plasmin, sequence (P00747 97-810 limits assumed): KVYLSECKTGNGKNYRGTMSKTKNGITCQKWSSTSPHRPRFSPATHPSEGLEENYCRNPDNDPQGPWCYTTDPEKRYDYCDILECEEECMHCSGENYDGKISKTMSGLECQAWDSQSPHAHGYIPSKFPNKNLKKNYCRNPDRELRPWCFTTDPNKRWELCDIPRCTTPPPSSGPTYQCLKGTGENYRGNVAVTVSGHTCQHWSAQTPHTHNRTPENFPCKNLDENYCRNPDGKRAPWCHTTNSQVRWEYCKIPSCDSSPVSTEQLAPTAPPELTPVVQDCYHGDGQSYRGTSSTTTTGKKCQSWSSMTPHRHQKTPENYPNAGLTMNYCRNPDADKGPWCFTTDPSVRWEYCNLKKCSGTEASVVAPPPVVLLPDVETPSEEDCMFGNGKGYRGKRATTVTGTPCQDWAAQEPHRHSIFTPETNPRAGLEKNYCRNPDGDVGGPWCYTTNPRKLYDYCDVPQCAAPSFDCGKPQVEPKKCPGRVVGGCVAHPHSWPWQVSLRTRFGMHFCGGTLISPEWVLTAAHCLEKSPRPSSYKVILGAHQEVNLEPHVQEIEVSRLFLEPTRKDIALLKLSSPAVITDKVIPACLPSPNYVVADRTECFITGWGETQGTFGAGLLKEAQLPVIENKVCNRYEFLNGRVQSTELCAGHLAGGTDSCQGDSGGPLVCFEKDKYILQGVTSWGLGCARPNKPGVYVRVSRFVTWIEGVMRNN

[11] = biological target: T4, factor XIa (human, UniProt P03951 19-625); test: protease inhibition assay
T4 construct: also called FXIa

B1: FXII618 variant with P in position six replaced by S (peptide)
peptide: RCFRLSCRQLRCRW-NH2
modifications: linker 2-7-12 via TATA; N-terminus assumed
SMILES: CC(C)C[C@@H]1NC(=O)[C@H](CCC(N)=O)NC(=O)[C@H](CCCNC(=N)N)NC(=O)[C@@H]2CSCCC(=O)N3CN(CN(C3)C(=O)CCSC[C@H](NC(=O)[C@@H](N)CCCNC(=N)N)C(=O)N[C@@H](Cc3ccccc3)C(=O)N[C@@H](CCCNC(=N)N)C(=O)N[C@@H](CC(C)C)C(=O)N[C@@H](CO)C(=O)N2)C(=O)CCSC[C@@H](C(=O)N[C@@H](CCCNC(=N)N)C(=O)N[C@@H](Cc2c[nH]c3ccccc23)C(N)=O)NC(=O)[C@H](CCCNC(=N)N)NC1=O
[1]
  Ki: < 100 nM

B2: peptide 18 (peptide 2, Pro6 to leucine) (peptide)
peptide: RCFRLLCRQLRCRW-NH2
modifications: linker 2-7-12 via TATA; N-terminus assumed
SMILES: CC(C)C[C@@H]1NC(=O)[C@H](CCC(N)=O)NC(=O)[C@H](CCCNC(=N)N)NC(=O)[C@@H]2CSCCC(=O)N3CN(CN(C3)C(=O)CCSC[C@H](NC(=O)[C@@H](N)CCCNC(=N)N)C(=O)N[C@@H](Cc3ccccc3)C(=O)N[C@@H](CCCNC(=N)N)C(=O)N[C@@H](CC(C)C)C(=O)N[C@@H](CC(C)C)C(=O)N2)C(=O)CCSC[C@@H](C(=O)N[C@@H](CCCNC(=N)N)C(=O)N[C@@H](Cc2c[nH]c3ccccc23)C(N)=O)NC(=O)[C@H](CCCNC(=N)N)NC1=O
[2]
  fold reduction of activity vs peptide 2: < 2 fold
[1]
  Ki: < 100 nM

B3: peptide 15 (peptide 2, Pro6 to alanine) (peptide)
peptide: RCFRLACRQLRCRW-NH2
modifications: linker 2-7-12 via TATA; N-terminus assumed
SMILES: CC(C)C[C@@H]1NC(=O)[C@H](CCCNC(=N)N)NC(=O)[C@H](Cc2ccccc2)NC(=O)[C@@H](NC(=O)[C@@H](N)CCCNC(=N)N)CSCCC(=O)N2CN3CN(C2)C(=O)CCSC[C@@H](C(=O)N[C@@H](CCCNC(=N)N)C(=O)N[C@@H](Cc2c[nH]c4ccccc24)C(N)=O)NC(=O)[C@H](CCCNC(=N)N)NC(=O)[C@H](CC(C)C)NC(=O)[C@H](CCC(N)=O)NC(=O)[C@H](CCCNC(=N)N)NC(=O)[C@H](CSCCC3=O)NC(=O)[C@H](C)NC1=O
[2]
  fold reduction of activity vs peptide 2: < 2 fold
[1]
  Ki: < 100 nM

B4: FXII618 (peptide)
peptide: H-RCFRLPCRQLRCR-NH2
modifications: linker 2-7-12 via TATA
notes: Bicyclic; free N-terminus; also called peptide 1; bicyclic peptide 1
[3]
  Ki: 5000 nM
[4]
  binding result: binds
[5]
  Ki: 252 nM

B5: JS17m (FXII618, Arg8 to His) (peptide)
peptide: H-RCFRLPCHQLRCR-NH2
modifications: linker 2-7-12 via TATA
SMILES: CC(C)C[C@@H]1NC(=O)[C@H](CCC(N)=O)NC(=O)[C@H](Cc2c[nH]cn2)NC(=O)[C@@H]2CSCCC(=O)N3CN(CN(C3)C(=O)CCSC[C@H](NC(=O)[C@@H](N)CCCNC(=N)N)C(=O)N[C@@H](Cc3ccccc3)C(=O)N[C@@H](CCCNC(=N)N)C(=O)N[C@@H](CC(C)C)C(=O)N3CCC[C@H]3C(=O)N2)C(=O)CCSC[C@@H](C(=O)N[C@@H](CCCNC(=N)N)C(N)=O)NC(=O)[C@H](CCCNC(=N)N)NC1=O
notes: also called Arg8→His (H)
[6]
  Ki: 21.6 nM
[7]
  Ki: 80 nM

B6: JS35 (rsCF^4…^bCR) (peptide)
peptide: H-[dR][dS]C[Phe(4-F)]RLPCRQL[β3hR]CR-NH2
modifications: linker 3-8-13 via TATA
SMILES: CC(C)C[C@@H]1NC(=O)[C@H](CCC(N)=O)NC(=O)[C@H](CCCNC(=N)N)NC(=O)[C@@H]2CSCCC(=O)N3CN(CN(C3)C(=O)CCSC[C@H](NC(=O)[C@@H](CO)NC(=O)[C@H](N)CCCNC(=N)N)C(=O)N[C@@H](Cc3ccc(F)cc3)C(=O)N[C@@H](CCCNC(=N)N)C(=O)N[C@@H](CC(C)C)C(=O)N3CCC[C@H]3C(=O)N2)C(=O)CCSC[C@@H](C(=O)N[C@@H](CCCNC(=N)N)C(N)=O)NC(=O)C[C@H](CCCNC(=N)N)NC1=O
[8]
  Ki: 0.32 nM

B7: JS7m (FXII618, Arg1 to D-Arg-D-Ser) (peptide)
peptide: H-[dR][dS]CFRLPCRQLRCR-NH2
modifications: linker 3-8-13 via TATA
SMILES: CC(C)C[C@@H]1NC(=O)[C@H](CCC(N)=O)NC(=O)[C@H](CCCNC(=N)N)NC(=O)[C@@H]2CSCCC(=O)N3CN(CN(C3)C(=O)CCSC[C@H](NC(=O)[C@@H](CO)NC(=O)[C@H](N)CCCNC(=N)N)C(=O)N[C@@H](Cc3ccccc3)C(=O)N[C@@H](CCCNC(=N)N)C(=O)N[C@@H](CC(C)C)C(=O)N3CCC[C@H]3C(=O)N2)C(=O)CCSC[C@@H](C(=O)N[C@@H](CCCNC(=N)N)C(N)=O)NC(=O)[C@H](CCCNC(=N)N)NC1=O
notes: also called Arg1→D-Arg-D-Ser (rs)
[9]
  Ki: 18 nM

B8: JS33-R (rsCF^4…^bC) (peptide)
peptide: H-[dR][dS]C[Phe(4-F)]RLPCHQL[β3hR]C-NH2
modifications: linker 3-8-13 via TATA
SMILES: CC(C)C[C@@H]1NC(=O)[C@H](CCC(N)=O)NC(=O)[C@H](Cc2c[nH]cn2)NC(=O)[C@@H]2CSCCC(=O)N3CN(CN(C3)C(=O)CCSC[C@H](NC(=O)[C@@H](CO)NC(=O)[C@H](N)CCCNC(=N)N)C(=O)N[C@@H](Cc3ccc(F)cc3)C(=O)N[C@@H](CCCNC(=N)N)C(=O)N[C@@H](CC(C)C)C(=O)N3CCC[C@H]3C(=O)N2)C(=O)CCSC[C@@H](C(N)=O)NC(=O)C[C@H](CCCNC(=N)N)NC1=O
[8]
  Ki: 0.4 nM

## H-[dR][dS]CFRLPCHQL[β3hR]CR-NH2 (linker 3-8-13 via TATA) [JS36 (rs…^bCR)]
[8]
  Ki: 1 nM

B9: JS34 (rsCF^4…) (peptide)
peptide: H-[dR][dS]C[Phe(4-F)]RLPCHQLRCR-NH2
modifications: linker 3-8-13 via TATA
SMILES: CC(C)C[C@@H]1NC(=O)[C@H](CCC(N)=O)NC(=O)[C@H](Cc2c[nH]cn2)NC(=O)[C@@H]2CSCCC(=O)N3CN(CN(C3)C(=O)CCSC[C@H](NC(=O)[C@@H](CO)NC(=O)[C@H](N)CCCNC(=N)N)C(=O)N[C@@H](Cc3ccc(F)cc3)C(=O)N[C@@H](CCCNC(=N)N)C(=O)N[C@@H](CC(C)C)C(=O)N3CCC[C@H]3C(=O)N2)C(=O)CCSC[C@@H](C(=O)N[C@@H](CCCNC(=N)N)C(N)=O)NC(=O)[C@H](CCCNC(=N)N)NC1=O
[8]
  Ki: 0.64 nM

B10: corn trypsin inhibitor (other, UniProt P01088 29-155, looked up)
chain: SAGTSCVPGWAIPHNPLPSCRWYVTSRTCGIGPRLPWPELKRRCCRELADIPAYCRCTALSILMDGAIPPGPDAQLEGRLEDLPGCPREVQRGFAATLVTEAECNLATISGVAECPWILGGGTMPSK
notes: also called CTI
[10]
  Ki: 5000 nM
[11]
  Ki: 12500 nM
[3]
  Ki: 7 nM
